Entries after “also recorded” stand apart in the source; their conditions may differ. Like-named read-outs stand apart in the source and are kept apart here.

In assay [1] the test system is guinea pigs immunized with heat-inactivated BCG. The class given is in vivo, guinea pig.
The subject of another assay is T lymphocytes. Briefly: in vitro lymphocyte proliferation assay. The class given is cell-based. The text has this: The conditions of the assay are those described in Horn et al., mentioned above.
Assay [2] concerns guinea pigs immunized with live BCG. It is filed as in vivo, guinea pig. The following applies: for loss of antigenic activity during digestion with α-mannosidase: 0.2 μg intradermally.
Assay [3] relates to specific CD4+ T lymphocytes. The conditions noted are these: cited from earlier work.
Assay [4] has as its system guinea pigs immunized with the plasmids pAG831 or pAG832. It is filed as in vivo, guinea pig. The following applies: antigen 0.2 μg in 100 μl.
Assay [5] concerns guinea pigs immunized with the Apa fusion peptide. It is filed as in vivo, guinea pig.
Where [6] appears, read: guinea pigs immunized with live BCG.

On to “Lip: Mannosylated glycopeptide purified from M. tuberculosis culture, derived from the protein encoded by the Rv1796 gene (SEQ ID NO:3) (TIPTTETPPPPQTVTLSPVPPQTVTVIPAPPPEEG; not fully specified; mannosylated; MOD_RES (4)..(4) glycosidic bond to a di- or a tri-saccharide; listed as Mycobacterium tuberculosis)”, for which the “delayed-type hypersensitivity reaction (in words)” value is “relatively inactive” in assay [1] and “very active” in assay [2] (setting [6]). Also, the T-lymphocyte proliferation entry with T lymphocytes (T lymphocytes treated with an antibody directed against CD4 molecules) was “marginal”; in the assay with T lymphocytes (glycopeptide treated with α-mannosidase), “marginal”; with T lymphocytes (native Lip) it was “dependent on the peptide concentration”. The “delayed-type hypersensitivity of the peptide treated with subtilisin” value in assay [2] (0.02 μg in 0.1 ml, live BCG) was “abolishes the antigenic activity; also recorded: negative”. Further, the “delayed-type hypersensitivity of the peptide treated with α-mannosidase” value in assay [2] (0.02 μg in 0.1 ml, live BCG) is on record as “negative”. In assay [2] (after α-mannosidase 24 h at 37° C., live BCG), the “antigenic activity after deglycosylation” value is listed as “less than 30 000 TU/mg”. The “activity relative to the standard purified proteins from M. tuberculosis (PPD)” value in assay [2] (at an equivalent amount of proteins, Lip 0.02 μg vs PPD 0.25 μg in 0.1 ml) was “at least 10 times”. For the same molecule, the antigenic activity in assay [2] (setting [6]) was 1 000 000 TU/mg. The “loss of the antigenic activity by action of α-mannosidase” value in assay [2] (α-mannosidase 24 h at 37° C.) was “more than 95%”.

B1: Native Apa: Mannosylated protein secreted by M. tuberculosis, product of the Rv 1860 gene, purified from culture supernatant (protein, UniProt P9WIR7 40-325, looked up)
Alanine and proline-rich …: DPEPAPPVPTTAASPPSTAAAPPAPATPVAPPPPAAANTPNAQPGDPNAAPPPADPNAPPPPVIAPNAPQPVRIDNPVGGFSFALPAGWVESDAAHFDYGSALLSKTTGDPPFPGQPPPVANDTRIVLGRLDQKLYASAEATDSKAAARLGSDMGEFYMPYPGTRINQETVSLDANGVSGSASYYEVKFSDPSKPNGQIWTGVIGSPAANAPDAGPPQRWFVVWLGTANNPVDKGAAKALAESIRPLVAPPPAPAPAPAEPAPAPAPAGEVAPTPTTPTPQRTLPA
modifications: native mannosylated
notes: Mannosylated protein secreted by M. tuberculosis, product of the Rv 1860 gene, purified from culture supernatant
In the case of B1, the “loss of antigenicity on demannosylation” value in assay [3] (α-mannosidase, TFMS or expression in E. coli) was 100 fold. In addition, the “delayed-type hypersensitivity / CD4+ T lymphocyte response (in words)” value in assay [4] is “equivalent”. The “loss of antigenic activity during digestion with α-mannosidase” value in assay [2] (digestion 1 h, tuberculin titre vs PPD standard) was 66%; in assay [2] (digestion 4 h (3 to 6 mannose residues remain)), 86%. Further, the “delayed-type hypersensitivity reaction (in words)” value in assay [2] (setting [6]) is “show a delayed-type hypersensitivity reaction only in response to the native Apa; also recorded: considerable; also recorded: only the glycosylated native Apa is antigenic”. Also, in assay [5], the “delayed hypersensitivity sensitization (in words)” value was “identical”.

B2: E. Coli recombinant Apa: deglycosylated recombinant Apa produced in E. coli (protein, UniProt P9WIR7 40-325, looked up)
Alanine and proline-rich …: DPEPAPPVPTTAASPPSTAAAPPAPATPVAPPPPAAANTPNAQPGDPNAAPPPADPNAPPPPVIAPNAPQPVRIDNPVGGFSFALPAGWVESDAAHFDYGSALLSKTTGDPPFPGQPPPVANDTRIVLGRLDQKLYASAEATDSKAAARLGSDMGEFYMPYPGTRINQETVSLDANGVSGSASYYEVKFSDPSKPNGQIWTGVIGSPAANAPDAGPPQRWFVVWLGTANNPVDKGAAKALAESIRPLVAPPPAPAPAPAEPAPAPAPAGEVAPTPTTPTPQRTLPA
modifications: non-glycosylated, produced in E. coli
B2: the “delayed-type hypersensitivity / CD4+ T lymphocyte response (in words)” value in assay [4] is listed as “of the same strength as the responses observed with the glycosylated native antigen”; in assay [4] (listed as E. coli rApa) it was “equivalent”. Also, the “delayed-type hypersensitivity reaction (in words)” value in assay [2] (guinea pigs immunized with live BCG, listed as molecules produced in E. coli) is on record as “very weak or absent”; in assay [2] (guinea pigs immunized with live BCG, listed as non-glycosylated recombinant Apa produced in E. coli), “no reaction or develop a greatly decreased reaction”.

B3: glycosylated Apa produced by Mycobacterium smegmatis: Glycosylated Apa produced by M. smegmatis, overall mannose composition slightly different from M. tuberculosis Apa (protein, UniProt P9WIR7 40-325, looked up)
Alanine and proline-rich …: DPEPAPPVPTTAASPPSTAAAPPAPATPVAPPPPAAANTPNAQPGDPNAAPPPADPNAPPPPVIAPNAPQPVRIDNPVGGFSFALPAGWVESDAAHFDYGSALLSKTTGDPPFPGQPPPVANDTRIVLGRLDQKLYASAEATDSKAAARLGSDMGEFYMPYPGTRINQETVSLDANGVSGSASYYEVKFSDPSKPNGQIWTGVIGSPAANAPDAGPPQRWFVVWLGTANNPVDKGAAKALAESIRPLVAPPPAPAPAPAEPAPAPAPAGEVAPTPTTPTPQRTLPA
modifications: glycosylated, produced in M. smegmatis
As to B3, in assay [3], the “decrease of antigenic activity versus Apa produced by M. tuberculosis” value is given as “approximately 10 fold”.

B4: Deglycosylated Apa: deglycosylated Apa protein prepared as described in example 1 (α-mannosidase digestion) (protein, UniProt P9WIR7 40-325, looked up)
Alanine and proline-rich …: DPEPAPPVPTTAASPPSTAAAPPAPATPVAPPPPAAANTPNAQPGDPNAAPPPADPNAPPPPVIAPNAPQPVRIDNPVGGFSFALPAGWVESDAAHFDYGSALLSKTTGDPPFPGQPPPVANDTRIVLGRLDQKLYASAEATDSKAAARLGSDMGEFYMPYPGTRINQETVSLDANGVSGSASYYEVKFSDPSKPNGQIWTGVIGSPAANAPDAGPPQRWFVVWLGTANNPVDKGAAKALAESIRPLVAPPPAPAPAPAEPAPAPAPAGEVAPTPTTPTPQRTLPA
modifications: deglycosylated
As to B4, the “delayed-type hypersensitivity / CD4+ T lymphocyte response (in words)” value in assay [4] is on record as “of the same strength as the responses observed with the glycosylated native antigen”. Further, the “delayed-type hypersensitivity reaction (in words)” value in assay [2] (setting [6]) is “very weak or absent”. Also, the “delayed hypersensitivity sensitization (in words)” value in assay [5] is given as “identical”.

Values taken from patent US7361348B2, “Immunogenic glycopeptides, screening, preparation and uses” (priority 2000, dated 2008).
